# B1: Hairpin Ribozyme (parent)
# chain: GUCCUCUUUCACGUGCGCGUGAAAGAGAGAAGUGAACCAGAGAAACACACGUUGUGGUAUAUUACCUGGUA
# Variants of: B1
# Experiment: self-cleavage, relative activity (ratio to wild type); higher = more cleavage; co-transcriptional
row,Variant,self-cleavage
1,GUCCUCUUUCACGUGCGCUUGAAAGAGAGAAGUGAACCAGAGAAACAGACGUUGUGGUAUAUUACCUGGUA,0.2
2,GUCCUCUUUCACGUGCGCCUGAAAGAGAGAAGUGAACCAGAGAAACACACGUUGCGGUAUAUUACCUGGUA,0.271
3,GUCCUCUUUCACGUGCGCUUGAAAGAAAGAAGUGAACCAGAGAAACACACGUUGUGGUAUAUUACCUGGUA,0.489
4,GUCCUCUUUCACGUGCGCCUGAAAGAGAGAAGUGAACCAGAGAAACACACGUUGUGGUAUAUUACCUAGUA,0.276
5,GUCCUCUUUCACGUGCGCCUGAAAGAGAGAAGUGAACCAGAGAAACACACGUUGUGGUAUAUUACCUCGUA,0.222
6,GUCCUCUUUCACGUGCGCUUGAAAGAGAGAAGUGAACAAGAGAAACACACGUUGUGGUAUAUUACCUGGUA,0.141
7,GUCCUCUUUCACGUGCGCUUGAAAGAGAGAAGUGAACUAGAGAAACACACGUUGUGGUAUAUUACCUGGUA,0.481
8,GUCCUCUUUCACGUGCGCUUGAAAGAGAGAAGUGAACCAGAGAAACACACGUUGUGGUAUAUUAACUGGUA,0.733
9,GUCCUCUUUCACGUGCGCUUGAAAGAGAGAAGUGAACCAGAGAAACACACGUUGUGGUAUAUUAGCUGGUA,0.405
10,GUCCUCUUUCACGUGCGCCUGAAAGAGAGAAGUGAACCAGAGAAACACACGUUGUGGUAUAUUACGUGGUA,0.245
11,GUCCUCUUUCACGUGCGCUUGAAAGAGAGAAGUGAACCAGAGAAACACACGUUGUGGUAUAUUCCCUGGUA,0.162
12,GUCCUCUUUCACGUGCGCUUGAAAGAGAGAAGUGAACCAGAGAAACACACGUUGUGGUAUAUUGCCUGGUA,0.539
13,GUCCUCUUUCACGUGCGCCUUAAAGAGAGAAGUGAACCAGAGAAACACACGUUGUGGUAUAUUACCUGGUA,0.718
14,GUCCUCUUUCACGUGCGCUUGAAAGAGAGAAGUGAACCAGAGAAACACAAGUUGUGGUAUAUUACCUGGUA,0.329
15,GUCCUCUUUCACGUGCGCUUGAAAGAGAGAAGUGAACCAGAGAAACACACGUUGUGGUAAAUUACCUGGUA,0.804
16,GUCCUCUUUCACGUGCGCUUGAAAGAGAGAAGUGAACCAGAGAAACACACGUUGUGGUAGAUUACCUGGUA,0.444
17,GUCCUCUUUCACGUGCGCUUGAAAGAGAGAAAUGAACCAGAGAAACACACGUUGUGGUAUAUUACCUGGUA,0.124
18,GUCCUCUUUCACGUGCGCCUGAAAGAGAGAAGUGAACCAAAGAAACACACGUUGUGGUAUAUUACCUGGUA,0.343
19,GUCCUCUUUCACGUGCGCCUGAAAGAGAGAAGUGAACCAUAGAAACACACGUUGUGGUAUAUUACCUGGUA,0.091
20,GUCCUCUUUCACGUGCGCUUGAAAGAGAGAAGUGAACCGGAGAAACACACGUUGUGGUAUAUUACCUGGUA,0.297
21,GUCCUCUUUCACGUGCGCUUGAAAGAGAGAAGUGAACCAGAGCAACACACGUUGUGGUAUAUUACCUGGUA,0.101
22,GUCCUCUUUCACGUGCGCCUGAAAGAGAGAAGUGAACCAGACAAACACACGUUGUGGUAUAUUACCUGGUA,0.329
23,GUCCUCUUUCACGUGCGCCUGAAAGAGAGAAGUGAACCAGAAAAACACACGUUGUGGUAUAUUACCUGGUA,0.194
24,GUCCUCUUUCACGUGCGCUUGAAAGUGAGAAGUGAACCAGAGAAACACACGUUGUGGUAUAUUACCUGGUA,0.682
25,GUCCUCUUUCACGUGCGCCUGAAAGAGAAAAGUGAACCAGAGAAACACACGUUGUGGUAUAUUACCUGGUA,0.112
26,GUCCUCUUUCACGUGCGCCUGAAAGAGAGAAGUGAACCAGAGAAACACACGUAGUGGUAUAUUACCUGGUA,0.861

row,Variant,self-cleavage
1,GUCCUCUUUCACGUGCGCCUGAAAGAGAGAAGUGAACCAGAGAAACACACGUUGUGGUAAAUUACCUGGUA,0.9
2,GUCCUCUUUCACGUGCGCCUGAAAGAGAGAAGUGAACCAGAGAAACACACGUUGUGGUACAUUACCUGGUA,0.984
3,GUCCUCUUUCACGUGCGCCUGAAAGAGAGAAGUGAACCAGAGAAACACACGUUGUGGUAGAUUACCUGGUA,0.541
4,GUCCUCUUUCACGUGCGCCUGAAAGAGAGAAGUGAACCAGAGAAACACACGUUUUGGUAUAUUACCUGGUA,0.626
5,GUCCUCUUUCACGUGCGCCUGAAAGAGAGAAGUCAACCAGAGAAACACACGUUGUGGUAUAUUACCUGGUA,1.31
6,GUCCUCUUUCACGUGCGCUUGAAAGAGAGAAGUGAACCAGAGAAACACACGUUGUGGUAUAUUACCUGUUA,0.227
7,GUCCUCUUUCACGUGCGCCUGAAAGAGAGAAGUGAACCAGAGAAACACACGUUGUGGGAUAUUACCUGGUA,0.705
8,GUCCUCUUUCACGUGCGCCUGAAAGAGAGAAGUGAACCAGAGAAACACACGUUGUGGCAUAUUACCUGGUA,0.815
9,GUCCUCUUUCACGUGCGCCUGAAAGAGAGAAGUGAACCAGAGAAACACACGUUGUGGUAUAUUACCUGGAA,0.673
10,GUCCUCUUUCACGUGCGCUUGAAAGAGAGAUGUGAACCAGAGAAACACACGUUGUGGUAUAUUACCUGGUA,0.0864
11,GUCCUCUUUCACGUGCGCCUGAAAGAGAGAAGUGAACCAGAGAAACACACGUUGUGGUAUAUUACCAGGUA,0.323
12,GUCCUCUUUCACGUGCGCCUGAAAGAGAGAAGUGAACCAGAGAAACACACGUUGUGGUAUAUUACCGGGUA,0.227
13,GUCCUCUUUCACGUGCGCCUGAAAGAGAGAAGUGAACCAGAGAAACACACGUUGUGAUAUAUUACCUGGUA,0.174
14,GUCCUCUUUCACGUGCGCUUGAAAGAGAGAAGUGAACCAGAGAAACACACGUUGUGGUAUAUUACCUGGUA,0.891
15,GUCCUCUUUCACGUGCGCUUGAAAGAGAGAAGUCAACCAGAGAAACACACGUUGUGGUAUAUUACCUGGUA,1.36
16,GUCCUCUUUCACGUGCGCUUGAAAGAGAGAAGUUAACCAGAGAAACACACGUUGUGGUAUAUUACCUGGUA,1.3
17,GUCCUCUUUCACGUGCGCUUGAAGGAGAGAAGUGAACCAGAGAAACACACGUUGUGGUAUAUUACCUGGUA,0.926
18,GUCCUCUUUCACGUGCGCUUGAAUGAGAGAAGUGAACCAGAGAAACACACGUUGUGGUAUAUUACCUGGUA,0.684
19,GUCCUCUUUCACGUGCGCUUGAAAGAGUGAAGUGAACCAGAGAAACACACGUUGUGGUAUAUUACCUGGUA,0.628
20,GUCCUCUUUCACGUGCGCUUGAAAGAGCGAAGUGAACCAGAGAAACACACGUUGUGGUAUAUUACCUGGUA,0.357
21,GUCCUCUUUCACGUGCGCCUGAAAGAGAGAAAUGAACCAGAGAAACACACGUUGUGGUAUAUUACCUGGUA,0.147
22,GUCCUCUUUCACGUGCGCUUGAAAGAGAGAAGUGAACCAGAGAAACACACGUUGUGGUAUAUAACCUGGUA,0.166
23,GUCCUCUUUCACGUGCGCUUGUAAGAGAGAAGUGAACCAGAGAAACACACGUUGUGGUAUAUUACCUGGUA,0.648
24,GUCCUCUUUCACGUGCGCUUGAAAGAGAGUAGUGAACCAGAGAAACACACGUUGUGGUAUAUUACCUGGUA,0.181
25,GUCCUCUUUCACGUGCGCUUGAAAGAGAGGAGUGAACCAGAGAAACACACGUUGUGGUAUAUUACCUGGUA,0.12
26,GUCCUCUUUCACGUGCGCCUGAAAGAGAGAAGUGAACCAGAGAAACAGACGUUGUGGUAUAUUACCUGGUA,0.165

row,Variant,self-cleavage
1,GUCCUCUUUCACGUGCGCUUGAAAGAGAGAAGUGAACCAGAGAUACACACGUUGUGGUAUAUUACCUGGUA,0.124
2,GUCCUCUUUCACGUGCGCUUGAAAGAGAGAAGUGAACCAGAGAAACACACGUUGUGGUAUAUUACAUGGUA,0.272
3,GUCCUCUUUCACGUGCGCCUGAAAGAGAGAAGUGAACCAGAGAAAAACACGUUGUGGUAUAUUACCUGGUA,0.303
4,GUCCUCUUUCACGUGCGCUUGAAAGAGAGAAGUGAACCAGAGAAACACACGUUGUGGUAUAUUACCUGGUG,1.02
5,GUCCUCUUUCACGUGCGCUUGAAAGAGAGAAGUGAACCAGAGAAACACACGUUGUGGUAUAUUACCUCGUA,0.196
6,GUCCUCUUUCACGUGCGCUUGAAAGAGAGAAGUGAACCAGAGAAACACACGGUGUGGUAUAUUACCUGGUA,0.741
7,GUCCUCUUUCACGUGCGCCUGAAAGAGAGAAGUGAACCAGAGAAACACACGUUGUAGUAUAUUACCUGGUA,0.101
8,GUCCUCUUUCACGUGCGCUUGAAAGAGAGAAGUGAACCAGAGAAACACACGUUUUGGUAUAUUACCUGGUA,0.497
9,GUCCUCUUUCACGUGCGCUUGAAAGAGAGAAGUGAACCAGAGAAACACACGUUAUGGUAUAUUACCUGGUA,0.468
10,GUCCUCUUUCACGUGCGCCUGAAAGAGAGAAGUGAACUAGAGAAACACACGUUGUGGUAUAUUACCUGGUA,0.489
11,GUCCUCUUUCACGUGCGCCUGAAAGAGAGAAGUGAACAAGAGAAACACACGUUGUGGUAUAUUACCUGGUA,0.174
12,GUCCUCUUUCACGUGCGCUUGAAAGAGAGAAGUGAAACAGAGAAACACACGUUGUGGUAUAUUACCUGGUA,0.34
13,GUCCUCUUUCACGUGCGCUUGAAAGAGAGAAGUGAACCAAAGAAACACACGUUGUGGUAUAUUACCUGGUA,0.325
14,GUCCUCUUUCACGUGCGCUUGAAAGAGAGAAGUGAACCAGAGAAACACUCGUUGUGGUAUAUUACCUGGUA,0.158
15,GUCCUCUUUCACGUGCGCUUGAAAGAGAGAAGUGAACCAGAGAAACACACGUUGUGCUAUAUUACCUGGUA,0.105
16,GUCCUCUUUCACGUGCGCUAGAAAGAGAGAAGUGAACCAGAGAAACACACGUUGUGGUAUAUUACCUGGUA,0.825
17,GUCCUCUUUCACGUGCGCUUGAAAGAGAGAAGUGAACCAGAGAAACACACGUUGUGGUAUAAUACCUGGUA,0.268
18,GUCCUCUUUCACGUGCGCUUGAAAGAGAGAAGUGAACCAGAGAAACACACGUUGUGGUAUAGUACCUGGUA,0.24
19,GUCCUCUUUCACGUGCGCUUGAAAGAGAAAAGUGAACCAGAGAAACACACGUUGUGGUAUAUUACCUGGUA,0.111
20,GUCCUCUUUCACGUGCGCUUGAAAGAGAUAAGUGAACCAGAGAAACACACGUUGUGGUAUAUUACCUGGUA,0.14
21,GUCCUCUUUCACGUGCGCUUAAAAGAGAGAAGUGAACCAGAGAAACACACGUUGUGGUAUAUUACCUGGUA,0.875
22,GUCCUCUUUCACGUGCGCUUGAAAGAGAGAAGUGAACCAGAGAAACACACGUUGUGGUGUAUUACCUGGUA,0.204
23,GUCCUCUUUCACGUGCGCUUGAAAGAGAGAAGUGAACCAGAGAAACACACGUUGUGGUUUAUUACCUGGUA,0.213
24,GUCCUCUUUCACGUGCGCCUGAAAGAGAGAAGUGAACCAGAGAAACACACGAUGUGGUAUAUUACCUGGUA,0.957

# Source: the RNAGym collection of RNA variant scans (doi:10.7554/elife.80360)
